According to US11034736B2, “Anti-viral cnidarins” (priority 2014, dated 2021):
“And” between values parts separate entries of the source, which are not always exact repeats. Identical values can stand only once. Like-named read-outs stand apart in the source and are kept apart here.

What was measured:
HIV-1US/92/727 = assay: Anti-HIV evaluation in PHA-stimulated human PBMCs, reverse transcriptase in supernatant; format: cell-based; conditions: HIV-1US/92/727, human PBMCs, 7 days
Method: (§1) The cultures were incubated for 7 days at 37° C./5% CO2. Efficacy of the compounds was evaluated by measuring the amount of reverse transcriptase in the culture supernatant and toxicity was evaluated using XTT to measure cell viability. AZT was evaluated in parallel as an assay control.

in vitro = conditions: human
Method: as §1

HIV-1RF = assay: XTT-tetrazolium anti-HIV assay, HIV-1RF in CEM-SS cells; format: cell-based; conditions: for EC50: HIV-1RF, T-tropic laboratory strain, CEM-SS cells, XTT, 6 days
Method: (§2) A 2,3-bis-[2-methoxy-4-nitro-5-sulfophenyl]-2H-tetrazolium-5-carboxanilide inner salt (XTT)-tetrazolium-based assay was used to determine the anti-HIV activity of CNID-1, -2 and -3 against a T-tropic laboratory strain (HIV-1RF) in T-lymphoblastic CEM-SS cells as described previously (Gulakowski et al., J. Virol. Methods, 33: 87-100 (1991)). CEM-SS cells were maintained in RPMI 1640 media without phenol red and supplemented with 10% fetal bovine serum (BioWhittaker), 2 mM L-glutamine (BioWhittaker), and 50 μg/ml gentamicin (BioWhittaker) (complete medium). Exponentially growing cells were washed and resuspended in complete medium, and a 50 μl aliquot containing 5×10^3 cells was added to individual wells of a 96-well round-bottom microtiter plate containing serial dilutions of the respective cnidarin protein in a volume of 100 μl of medium. Stock supernatants of HIV-1RF were diluted in complete medium to yield sufficient cytopathicity (80-90% cell kill in 6 days), and a 50 μl aliquot was added to appropriate wells. Plates were incubated for 6 days at 37° C. and then stained for cellular viability using XTT.
(§3) The HIV reverse transcriptase inhibitor 3′-Azido-3′-deoxythymidine (AZT) was used as a positive control. All assays were carried out in triplicate for all viruses and cells.

HIV-1IIIB gp120 [1] = target: T1, HIV-1IIIB gp120 (Human immunodeficiency virus type 1 group M subtype B, UniProt P04578)
Method: Recombinant CNID-1 (in fusion with Trx and rEK cleaved forms of rCNID-1) and recombinant HIV-1IIIIB gp120 (Immuno Diagnostics, Woburn, Mass.) controls were resolved on 4-12% Bis-Tris pre-cast SDS-PAGE gels (Life Technologies, Grand Island, N.Y.) and blotted onto polyvinylidine difluoride membranes. Membranes were blocked with 3% BSA for 2 hours. For CNID-1 detection, the membrane was incubated overnight with rabbit anti-CNID-1 (1:2000 dilution). For detection of rCNID-1 binding to gp120, membranes were incubated overnight with 1 μg/ml rgp120, then washed thrice with PBST before being incubated with polyclonal rabbit anti-gp120 (1:1000 dilution) overnight. Membranes were washed three times with PBST and further incubated with goat anti-rabbit (H+L), peroxidase conjugated secondary antibody (Thermo Fisher Scientific Inc., Rockford, Ill.) at a 1:1000 dilution for 1 hr. After washing with PBST, signals were detected on Hyblot CL autoradiography film (Denville Scientific, Metuchen, N.J.) using the SignalFire ECL reagent system (Cell Signaling Technology Inc., Danvers, Mass.) according to the manufacturer's protocol.

HIV-1IIIB gp120 [2] = target: T1, HIV-1IIIB gp120; conditions: ELISA, 100 ng/well gp120
Method: High protein binding Greiner 96-well plates (VWR, Bridgeport, N.J.) were coated with 1 pmol/well of recombinant HIV-1IIIIB gp120 (Immuno Diagnostics, Woburn, Mass.) or recombinant HIV-1HXB2 gp41 (Vybion Inc., Ithaca, N.Y.) at 4° C. overnight. The wells were emptied and then blocked with 200 μl/well of 3% non-fat dry milk (Bio-Rad, Hercules, Calif.) blocking solution for 2 hrs. A control plate was incubated with blocking solution only. After washing three times with PBST, 0.5-log10 serial dilutions of rCNID-1-Trx were added to triplicate wells of gp120−, gp41− and the blocking solution control plate, and the plates were incubated for 2 hrs. The plates were washed with PBST and 100 W/well of a 1:250 dilution of polyclonal rabbit anti-CNID-1 antibody was added and allowed to incubate for 1 hr, followed by three washes with PBST. Goat anti-rabbit (H+L), peroxidase conjugated secondary antibody (Thermo Fisher Scientific Inc., Rockford, Ill.) was added to each well (100 μl/well of a 1:1000 dilution) and further incubated for 1 hr, followed by three washes with PBST. The TMB 2-component Microwell peroxidase substrate kit (KPL Inc., Gaithersburg, Md.) was used for peroxidase detection: 100 W/well, incubation for 5-10 min and the reaction was stopped by addition of 0.5M HCl (100 W/well) before reading the absorbance at 450 nm.
Briefly, 100 ng/wells of glycosylated recombinant HIV-1IIIB gp120 (Immuno Diagnostics, Woburn, Mass.) or nonglycosylated HIV-1 gp120 (MyBioSource LLC, San Diego, Calif.) was added to the wells of two 96-well plates, and incubated overnight at 4° C. The plates were washed and blocked as previously described. Serial dilutions of rCNID-1-Trx were added (100 W/well); incubation done for 2 hrs. The plates were then washed and visualized using anti-CNID-1 polyclonal antibodies as above.

PBMC = assay: Cell viability of PBMC cultures (CellTiter formazan dye reduction); format: cell-based, human
Text: (§4) To test the anti-HIV activity of CNID1 against HIV primary isolates in fresh human cells, monocyte-tropic HIV-1 strain Ba-L was obtained from the NIAID AIDS Research and Reference Reagent Program (National Institutes of Health, Bethesda, Md.). The low passage HIV-1 pediatric isolate ROJO was derived as described previously (Buckheit et al., AIDS Res. Hum. Retroviruses, 10: 1497-1506 (1994)). Human peripheral blood mononuclear cells (PBMCs) and macrophages were isolated from hepatitis and HIV seronegative donors following Ficoll-Paque centrifugation as described elsewhere (Gartner & Popovic, Techniques in HIV Research, Aldovini, A. and Walker B., eds., pp. 59-63, Stockton Press, New York, 1990). Antiviral assays were carried out with 3-day-old phytohaemagglutinin/interleukin-2 stimulated PBMCs or 6-day-cultured monocyte/macrophages. […] HIV-1 replication in PBMC (ROJO) or monocyte macrophage (Ba-L) cultures were determined by measurement of reverse transcriptase activity (Buckheit et al., Antiviral Res., 21: 247-265 (1993)) in the supernatants or p24 antigen expression by ELISA (Coulter, Hialeah, Fla.), respectively. Cell viability by formazan dye reduction was determined in replicated cultures using the CellTiter reagent (Promega, Madison, Wis.). […]

HIV-1IIIB [3] = assay: Viral fusion assay, chemiluminescence in HeLa CD4 LTR β-gal cells; format: cell-based
Method: (§5) Attachment and fusion assays were performed in HeLa-CD4-LTR-β-galactosidase cell lines as described previously (Gartner & Popovic, (1990), supra) with the following modifications. Following the interaction of HIV-1IIIIIB with HeLa CD4 LTR β-gal cells, viral attachment to HeLa CD4 LTR β-gal cells was detected as cell-associated p24 antigen following a 1 hour adsorption of virus and vigorous washing for removal of unbound virus. Fusion of HIV-1IIIIB with HeLa CD4 LTR β-gal cells was detected by chemiluminescence using a single-step lysis and detection method (Tropix Gal-screen, Bedford, Mass.) and results reported as EC50 values. Chicago Sky Blue, a polysulfonic acid dye inhibitor of HIV attachment and fusion, was used as a positive control for all assays (Clanton et al., J. Acquired Immune Defic. Syndr., 5: 771-781 (1992)).

HIV-1IIIB [4] = assay: Viral attachment assay, cell-associated p24 antigen in HeLa CD4 LTR β-gal cells; format: cell-based
Method: as §5

[5] = system: HeLa CD4 LTR β-galactosidase cells; assay: Cytotoxicity in the attachment and fusion assays; format: cell-based
Method: as §3, §5

HIV-1ROJO = assay: HIV-1 ROJO replication in human PBMC cultures, supernatant reverse transcriptase activity; format: cell-based; conditions: T-tropic primary isolate
Text: as §4

Macrophage = assay: Cell viability of monocyte/macrophage cultures (CellTiter formazan dye reduction); format: cell-based, human; conditions: macrophages
Text: as §4

CEM-SS cells = assay: Direct toxicity to uninfected CEM-SS control cells (XTT); format: cell-based, human
Method: as §2, §3

human PBMCs = assay: Toxicity in PHA-stimulated human PBMCs, XTT cell viability; conditions: human PBMCs, XTT, 7 days
Method: as §1

## Cc1cn([C@H]2C[C@H](N=[N+]=[N-])[C@@H](CO)O2)c(=O)[nH]c1=O [AZT, 3′-Azido-3′-deoxythymidine, reference compound]
HIV-1US/92/727; Human immunodeficiency virus 1, PBMC, 168 h, read-out: EC50
  EC50: 1.88 nM
In vitro
  CC50 at 7 days: > 1000 nM

B1: rCNID-1-Trx: thioredoxin-hexahistidine-CNID-1 fusion protein expressed in E. coli (protein)
chain: GRATLGQLKTSTIPPVTFDVPFDGANIPQDVRFTIATVNGGKGALYNAELGESAGHTIVLESDGDHPIPGTFDPKSGRGLDYLPRGLVLFSSHNYVGNMKMYTEPDSDITADFPPGTPFGVSSAITGEGSAFQLNTGIDHTGEFEIIPPNTKRNLAGVFDNEIRSVSPTGGK
modifications: left off: large carriers; small tags and cut ends
notes: thioredoxin-hexahistidine-CNID-1 fusion protein expressed in E. coli
HIV-1RF; CaCl2 presence
  Activity after extraction and refolding from inclusion bodies: low-to-partially active
HIV-1RF; absence of CaCl2
  Activity after extraction and refolding from inclusion bodies: inactive
HIV-1IIIB gp120 [1]
  Binding to gp120 by immunoblot: specific binding
HIV-1IIIB gp120 [2]
  Binding to gp120: binds to HIV-1 glycoproteins, gp120

B2: rCNID-1 truncated forms: truncated forms of rCNID-1 (~14-16 kDa) from enterokinase digestion of rCNID-1-Trx (protein)
chain: B1 chain
HIV-1RF
  EC50: 45 to 150 nM
HIV-1IIIB gp120 [1]
  Binding to gp120 by immunoblot: specific binding

B3: CNID-3: HIV-inhibitory protein from soft coral Synthecium sp.; 170 amino acids, 17,963 Da, SEQ ID NO: 3 (protein)
chain: GKSAYPGQITSDVPFVTFDVPFDGVNIPQDVRFTIATVNGGKLALYNAKLGDPANNTIVLESDGDHPIPGTFDDPKGRGLDYAFGGLLLFSFHNFVGHKKLYREPDSDITADFPPGLGGSSAITGEGSTVQLYTGIDFTGISEIMPVNTKRNFVVAFGNEFKSVSPTGGG
HIV-1RF
  EC50: 0.114 nM
PBMC
  CC50: 155 nM
HIV-1US/92/727
  EC50: 0.0160 µg/mL
HIV-1IIIB [3]
  Inhibition of viral fusion: inhibit HIV viral fusion
HIV-1IIIB [3]; read-out: Inhibition of Fusion EC50
  EC50: 2.06 nM
HIV-1IIIB [4]
  Inhibition of viral attachment to the cell: not attachment
HIV-1IIIB [4]; read-out: Inhibition of Attachment EC50
  EC50: > 55.7 nM
[5]; attachment assay, read-out: Inhibition of Attachment CC50
  CC50: > 55.7 nM
[5]; fusion assay, read-out: Inhibition of Fusion CC50
  CC50: > 55.7 nM
HIV-1ROJO
  EC50: 1.55 nM and 1.5 nM
Macrophage
  CC50: 4.62 nM
CEM-SS cells
  CC50: > 199 nM
Human PBMCs
  TC50: >0.5 µg/mL
